Earlier results as cited in patent US11033499B2, “Tablet formulation comprising a GLP-1 peptide and a delivery agent” (priority 2012, dated 2021).

Conditions: published studies with SNAC and human GLP-1

human GLP-1: human GLP-1 given with SNAC in published studies
Tmax: 20 to 30 min
